{
  "source": "patent US20240052047A1",
  "about": "(Pfizer, published 2024)",
  "binders": {"B1": {"name": "mAb-4894 anti-IL27RA/gp130 bispecific antibody (bispecific antibody, human IgG1)", "heavy 1": "EVQLVESGGGLVQPGGSLRLSCAASGFTFEYFGLQWVRQAPGKGLEWIGYTSSGGNYEYYEETLKGRFTISRDNAKNSLYLQMNSLRAEDTAVYYCARTKTGDYWGQGTLVTVSSASTKGPSVFPLAPSSKSTSGGTAALGCLVKDYFPEPVTVSWNSGALTSGVHTFPAVLQSSGLYSLSSVVTVPSSSLGTQTYICNVNHKPSNTKVDKKVEPKSCEKTHTCPPCPAPEAAGAPSVFLFPPKPKDTLMISRTPEVTCVVVDVSHEDPEVKFNWYVDGVEVHNAKTKPREEQYNSTYRVVSVLTVLHQDWLNGKEYKCKVSNKALPAPIEKTISKAKGQPREPQVYTLPPSREEMTKNQVSLTCEVKGFYPSDIAVEWESNGQPENNYKTTPPVLDSDGSFFLYSKLTVDKSRWQQGNVFSCSVMHEALHNHYTQKSLSLSPGK", "light 1": "DIQMTQSPSSLSASVGDRVTITCRASQDIGNSLTWYQQKPGKAPKRVIFGATGLAAGVPSRFSGSGSGTDFTLTISSLQPEDFATYYCLQSKQYPYTFGQGTKLEIKRTVAAPSVFIFPPSDEQLKSGTASVVCLLNNFYPREAKVQWKVDNALQSGNSQESVTEQDSKDSTYSLSSTLTLSKADYEKHKVYACEVTHQGLSSPVTKSFNRGEC", "heavy 2": "QVQLVQSGAEVKKPGSSVKVSCKVSGGSISSYYWSWVRQAPGQGLEWIGRIYITGNTNYNPSLKDRVTMTVDTSTSTHYMELSSLRSEDTAVYYCAREGPKLGIFDYWGQGTLVTVSSASTKGPSVFPLAPSSKSTSGGTAALGCLVKDYFPEPVTVSWNSGALTSGVHTFPAVLQSSGLYSLSSVVTVPSSSLGTQTYICNVNHKPSNTKVDKKVEPKSCRKTHTCPPCPAPEAAGAPSVFLFPPKPKDTLMISRTPEVTCVVVDVSHEDPEVKFNWYVDGVEVHNAKTKPREEQYNSTYRVVSVLTVLHQDWLNGKEYKCKVSNKALPAPIEKTISKAKGQPREPQVYTLPPSREEMTKNQVSLTCLVKGFYPSDIAVEWESNGQPENNYKTTPPVLDSDGSFFLYSRLTVDKSRWQQGNVFSCSVMHEALHNHYTQKSLSLSPGK", "light 2": "DIQMTQSPSSLSASVGDRVTITCRASQSVSSSYLAWYQQKPGKAPKLLIYGTESRATGVPSRFSGSGSGTDFTLTISSLQPEDFATYYCQQYGGYPTFGGGTKVEIKRTVAAPSVFIFPPSDEQLKSGTASVVCLLNNFYPREAKVQWKVDNALQSGNSQESVTEQDSKDSTYSLSSTLTLSKADYEKHKVYACEVTHQGLSSPVTKSFNRGEC", "notes": "Human IgG1 EE/RR heterodimer with L234A, L235A, G237A (EU); also called GBT-IL27R-4894; GBT-IL-27R-4894"}},
  "biological_target": "human IL27 receptor (IL27RA/gp130 heterodimer) on human cells (human, UniProt Q6UWB1 33-636; P40189 23-918)",
  "experiment": "cell-based or functional assay",
  "data": [
    {"binder": "B1", "values": [
      {"measurement": "Monocyte IDO1 EC50 (human PBMC, CD14+ monocytes, flow cytometry)", "result": 5, "unit": "pM"},
      {"measurement": "Monocyte PD-L1 EC50 (human whole blood, flow cytometry)", "result": 2, "unit": "pM"},
      {"measurement": "Primary Colonocytes IDO1 activity EC50 (kynurenine by LC-MS)", "result": 5400, "unit": "pM"},
      {"measurement": "T Cell pSTAT1 EC50 (human whole blood, CD3+ T cells, flow cytometry)", "result": 0.4, "unit": "nM"},
      {"measurement": "T Cell pSTAT3 EC50 (human whole blood, CD3+ T cells, flow cytometry)", "result": 0.2, "unit": "nM"}
    ]}
  ]
}
